Results reported in the supplement of paper PMC10567573.

B1: BRF1 (parent)
chain: FVESSGGGSSAVGQFVSLDGAGKT
B2: ANKRD9 (parent)
chain: VGAAGSARQELLGDRPRWQRLLGE

Variants of: B1
Test: protein stability index of a GFP-peptide fusion (GPS, HEK-293T) (PSI 1-6); higher = more stable
Conditions: c terminus: a fixed tail appended
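Further: lentivirally expressed fusions sorted by FACS into six bins by GFP to DsRed ratio, PSI derived from sequencing read proportions per bin multiplied by bin number.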

| Variant | protein stability index |
| --- | --- |
| A21G | 2.6 |
| A21L | 1.8 |
| A21V | 1.92 |
| A21H | 2.13 |
| A21D | 3.36 |
| A21E | 3.23 |
| A21R | 2.66 |
| A21M | 2.32 |
| A21S | 2.15 |
| A21F | 1.33 |
| A21W | 1.73 |
| A21C | 1.81 |
| A21I | 1.96 |
| A21N | 2.56 |
| A21Q | 2.03 |
| A21K | 2.43 |
| A21Y | 1.91 |
| A21T | 2.54 |
| A21P | 1.95 |
| S17R | 1.73 |
| S17V | 1.99 |
| S17A | 3.26 |
| S17I | 1.23 |
| S17T | 2.29 |
| S17Y | 2.45 |
| S17P | 1.81 |

| Variant | protein stability index |
| --- | --- |
| S17E | 2.53 |
| S17W | 2.87 |
| S17Q | 2.81 |
| S17D | 2.39 |
| S17L | 2.33 |
| S17H | 2.54 |
| S17N | 2.19 |
| S17M | 1.57 |
| S17K | 1.89 |
| S17C | 1.83 |
| S17F | 1.72 |
| S17G | 3.15 |
| V16H | 2.6 |
| V16K | 2.16 |
| V16E | 3.51 |
| V16L | 2.36 |
| V16F | 2.01 |
| V16T | 2.38 |
| V16G | 2.4 |
| V16A | 2.65 |
| V16N | 2.63 |
| V16P | 2.66 |
| V16Y | 1.75 |
| V16D | 2.96 |
| V16I | 2.18 |
| V16C | 3.51 |

| Variant | protein stability index |
| --- | --- |
| V16Q | 2.97 |
| V16M | 2.96 |
| V16S | 2.83 |
| V16W | 4.22 |
| V16R | 2.35 |
| D19M | 2.17 |
| D19W | 3.02 |
| D19F | 1.48 |
| D19E | 2.56 |
| D19A | 1.72 |
| D19T | 1.59 |
| D19P | 2.26 |
| D19Q | 1.98 |
| D19G | 1.69 |
| D19N | 2.02 |
| D19H | 2.27 |
| D19S | 1.59 |
| D19V | 1.12 |
| D19K | 2.55 |
| D19C | 1.72 |
| T24D | 2.72 |
| T24E | 2.3 |
| T24I | 2.59 |
| T24P | 2.48 |
| T24A | 2.98 |
| T24S | 2.19 |

| Variant | protein stability index |
| --- | --- |
| T24H | 1.79 |
| T24W | 2.24 |
| T24M | 2 |
| T24N | 2.15 |
| T24R | 3.12 |
| T24K | 2.44 |
| T24Y | 1.85 |
| T24F | 1.62 |
| T24G | 2.26 |
| T24C | 2.27 |
| T24Q | 2.86 |
| T24V | 2.33 |
| T24L | 2.02 |
| Q14R | 1.39 |
| Q14D | 2.73 |
| Q14N | 1.9 |
| Q14G | 2.06 |
| Q14S | 1.78 |
| Q14P | 3.44 |
| Q14M | 3.29 |
| Q14I | 2.53 |
| Q14A | 1.73 |
| Q14K | 1.72 |
| Q14T | 1.86 |
| Q14E | 2.89 |
| Q14H | 1.68 |

| Variant | protein stability index |
| --- | --- |
| Q14Y | 1.75 |
| Q14L | 1.04 |
| Q14C | 1.96 |
| L18V | 2.95 |
| L18W | 1.58 |
| L18Q | 2.88 |
| L18Y | 1.85 |
| L18N | 3.25 |
| L18M | 2.55 |
| L18G | 2.15 |
| L18E | 3.8 |
| L18P | 2.12 |
| L18R | 2 |
| L18A | 2.5 |
| L18S | 2.66 |
| L18H | 3.25 |
| L18F | 1.83 |
| L18T | 2.04 |
| L18I | 2.69 |
| L18D | 2.58 |
| L18K | 2.3 |
| L18C | 2.5 |
| F15D | 4.4 |
| F15E | 3.35 |
| F15H | 3.01 |
| F15K | 3.1 |

| Variant | protein stability index |
| --- | --- |
| F15G | 2.68 |
| F15M | 2.22 |
| F15A | 2.31 |
| F15R | 2.69 |
| F15Q | 2.56 |
| F15L | 2.27 |
| F15W | 2.06 |
| F15N | 2.83 |
| F15T | 2.96 |
| F15V | 2.12 |
| F15I | 2.55 |
| F15Y | 2.59 |
| F15P | 3.14 |
| F15S | 2.73 |
| G13L | 2.05 |
| G13D | 3.3 |
| G13R | 2.41 |
| G13Q | 1.93 |
| G13K | 2.06 |
| G13N | 1.81 |
| G13V | 2.25 |
| G13W | 1.49 |
| G13H | 1.84 |
| G13P | 2.18 |
| G13M | 1.66 |
| G13I | 1.02 |

| Variant | protein stability index |
| --- | --- |
| G13T | 2.3 |
| G13S | 2.05 |
| G13C | 1.92 |
| G13F | 4.42 |
| G13E | 2.96 |
| G22E | 3.08 |
| G22L | 1.6 |
| G22K | 1.73 |
| G22Q | 2.26 |
| G22T | 2.09 |
| G22C | 1.79 |
| G22P | 3.13 |
| G22A | 3 |
| G22F | 2.35 |
| G22W | 1.84 |
| G22V | 2.29 |
| G22D | 3.15 |
| G22I | 2.62 |
| G22N | 2.39 |
| G22H | 2.65 |
| G22Y | 1.9 |
| G22R | 1.87 |
| G22S | 2.47 |
| V12N | 3.08 |
| V12R | 2.51 |
| V12W | 3.19 |

| Variant | protein stability index |
| --- | --- |
| V12S | 2.43 |
| V12M | 2.52 |
| V12L | 1.95 |
| V12T | 1.86 |
| V12Y | 1.29 |
| V12P | 1.86 |
| K23Q | 2.01 |
| K23Y | 2.05 |
| K23I | 2.02 |
| K23P | 2.73 |
| K23N | 2.19 |
| K23T | 2.55 |
| K23M | 2.16 |
| K23D | 2.68 |
| K23C | 2.23 |
| K23G | 2.38 |
| K23R | 2.21 |
| K23W | 2.28 |
| K23H | 2.24 |
| K23F | 1.59 |
| K23E | 2.56 |
| K23L | 2.21 |
| K23S | 2 |
| K23V | 2.12 |
| K23A | 2.04 |
| G20L | 2.58 |

| Variant | protein stability index |
| --- | --- |
| G20I | 2.16 |
| G20S | 1.75 |
| G20M | 1.76 |
| G20R | 2.32 |
| G20Q | 3.03 |
| G20Y | 1.6 |
| G20C | 2.41 |
| G20V | 2.41 |
| G20H | 2.55 |
| G20K | 1.72 |
| G20E | 2.55 |
| G20W | 2.34 |
| G20A | 2.41 |
| G20P | 2.13 |
| G20T | 2.21 |
| G20F | 2.6 |
| G20N | 2.32 |
| G20D | 2.43 |

Variants of: B2
Test: as above
Conditions: c terminus: a fixed tail appended

| Variant | protein stability index |
| --- | --- |
| A7C | 3.44 |
| A7E | 5 |
| A7D | 3.65 |
| A7H | 3.36 |
| A7F | 2.49 |
| A3N | 3.19 |
| A3E | 3.55 |
| A3H | 2.91 |
| A3I | 3.48 |
| A3F | 2.52 |
| A3V | 3.89 |
| A3R | 3.06 |
| A3C | 1.52 |
| A3W | 2.53 |
| A3Q | 3 |
| A3P | 3.58 |
| A3K | 2.86 |
| A3D | 3.81 |
| A3M | 2.53 |
| A3S | 2.78 |
| A3T | 3.14 |
| A3G | 3.49 |

| Variant | protein stability index |
| --- | --- |
| V1D | 4.49 |
| V1E | 2.77 |
| V1C | 1.95 |
| V1L | 2.86 |
| V1I | 2.35 |
| V1Q | 3.7 |
| V1Y | 2.56 |
| V1F | 2.7 |
| V1P | 3.62 |
| V1M | 3.03 |
| V1K | 3.69 |
| V1A | 3.58 |
| V1T | 3.38 |
| V1H | 3.33 |
| V1R | 2.75 |
| V1G | 3.13 |
| G5L | 2.68 |
| G5A | 3 |
| G5M | 2.37 |
| G5Q | 3.09 |
| G5C | 1.49 |
| G5W | 2.9 |

| Variant | protein stability index |
| --- | --- |
| G5N | 2.9 |
| G5Y | 1.93 |
| G5R | 2.27 |
| G5F | 2.86 |
| G5S | 4 |
| G5D | 2.48 |
| G5T | 2.3 |
| G5I | 2.69 |
| G5P | 3.53 |
| G5E | 4.56 |
| G5H | 2.68 |
| G5K | 2.69 |
| G5V | 2.9 |
| A4T | 4.35 |
| A4G | 1.81 |
| A4F | 2.44 |
| A4M | 3.1 |
| A4C | 2.09 |
| A4L | 3.18 |
| A4P | 3.39 |
| A4K | 2.11 |
| A4W | 2.62 |

| Variant | protein stability index |
| --- | --- |
| A4Y | 2.08 |
| A4I | 2.84 |
| A4S | 3.24 |
| A4E | 2.91 |
| A4V | 2.92 |
| A4R | 3.02 |
| A4D | 3.35 |
| A4Q | 4.11 |
| S6V | 2.86 |
| S6N | 3.77 |
| S6T | 3.01 |
| S6K | 2.72 |
| S6E | 3.88 |
| S6F | 2.85 |
| S6I | 2.27 |
| S6H | 2.88 |
| S6G | 2.85 |
| S6L | 2.49 |
| S6R | 2.62 |
| S6D | 3.8 |
| S6Y | 2.73 |
| S6M | 3.65 |

| Variant | protein stability index |
| --- | --- |
| S6A | 2.6 |
| S6C | 1.21 |
| G2L | 2.71 |
| G2W | 2 |
| G2T | 3.06 |
| G2M | 2.69 |
| G2C | 2.24 |
| G2H | 2.56 |
| G2E | 3.29 |
| G2F | 2.57 |
| G2I | 2.67 |
| G2P | 3.11 |
| G2S | 3.39 |
| G2Y | 2.24 |
| G2Q | 4.06 |
| G2A | 3.23 |
| G2V | 2.33 |
| G2N | 3.82 |
| G2D | 3.32 |
| G2R | 4.84 |
